Test results from US7960140B2, “Avidin mutants” (Orion Diagnostica Oy, priority 2003, dated 2011).

Columns and labels:
[1] = Dissociation assay with fluorescent biotin conjugate (ArcDia BF560); type: binding
Procedure: The biotin-binding properties of produced mutagenised dcAvds were analysed by method based on the quenching of biotin-coupled fluorescent probe ArcDia BF560 (ArcDia Ltd., Turku, Finland) due to binding to avidin (FIG. 4). PerkinElmer LS55 luminometer was used for measurements. […] The spectra of 50 nM biotin-Bf560 solution in 50 mM Na-phosphate containing 650 mM NaCl was measured (red). Chicken avidin (Belovo S. A., Bastogne, Belgium) was added to final subunit concentration of 83 nM and green spectra was obtained.
Briefly, 50 nM free biotin-Bf560 solution in 50 mM Na-phosphate containing 650 mM NaCl was measured using excitation at 560 nm (2.5 nm slit) and emission was collected at 578 nm (5 nm slit). Continuous stirring (setting low) was used throughout the analysis. After 100 sec measurement, the protein under study was added to final biotin-binding subunit concentration 50 nM and the measurement was continued for 500 sec. […]
A one-phase dissociation model was used to analyse the data, as described elsewhere (Hytönen et al., (2004) Biochem J, in press). The dissociation rate constant (kdiss) was determined by fitting the equation −kdisst=ln(B/Bo) to the data. Bo is the measured maximum binding (100%) determined as the difference between the fluorescence of the free dye and the fluorescence of the protein-dye complex, and B is the amount of complex measured as a function of time. The first 500 seconds were omitted from the data to abolish the effect of the fast initial phase characteristic of avidin-BF560-biotin interaction (FIG. 9). The fraction of fluorescent biotin released after one-hour was determined, as well as the times of half-maximal (t½) and quarter-maximal (t¼) release. For dual chain avidins with modified binding sites, it was hypothesized that 50% of the binding sites would behave like those of wt avidin (cpAvd5S4 binding site of dcAvd was not modified). The dissociation data measured for wt avidin divided by two was subtracted from the data measured for the modified dual chain avidins and the dissociation curve was fitted to the difference as above.

[2] = Free biotin-binding sites by quenching of intrinsic fluorescence on biotin titration
Procedure: The number of free binding sites was determined based on the quenching of the intrinsic fluorescence of avidin due to binding of biotin (Laitinen et al., (2003) J. Biol. Chem. 278, 4010-4014). The protein sample under study diluted to 2 ml volume in 50 mM NaPO4 pH 7.0+650 mM NaCl was titrated with 1 μl additions of 70 μM biotin solution in the same buffer. The protein concentration in this assay was 500±15 nM, and the concentration was determined by comparing the emission intensity averaged over 340-350 nm (excitation at 280 nm) to avidin standard sample. The protein sample was continuously mixed by magnetic stirrer.
Intensity from each biotin concentration was averaged over eight second measurement. The end-point of the quenching was determined by fitting a line to obtained data and determining the total quenching by averaging the last three measured intensities (FIG. 12, Table 6).

[3] = Microplate temperature stability assay; type: physicochemical
Procedure: FIG. 13. Temperature sensitivity determined by microplate assay. The avidin, dcAvd and scAvd sample is treated with the indicated temperature for certain time and the ability to bind biotinylated alkaline phosphatase was determined by coating the microplate with the sample.
The stability of the protein was studied by microplate assay as described in the article by Nordlund et al., (2003) J Biol Chem 278, 2479-83. In this assay, 50 mM Na—PO4 buffer containing 100 mM NaCl was used and the protein was heated to 80° C. or 90° C. for certain time. After that, the capacity to bind fluorescent biotin was measured as described in the article by Nordlund et al., (2003) J Biol Chem 278, 2479-83.

[4] = Radiobiotin dissociation assay; type: binding; conditions: various temperatures
Procedure: FIG. 11. Radiobiotin dissociation assay for scAvd. Temperature-dependence of biotin dissociation rates measured by the [3H]biotin dissociation assay. Dissociation rate constant of radiobiotin was determined at various temperatures. The dissociation rate constants determined previously for avidin and streptavidin are also shown. The determined kdiss-values are connected by lines.
Radiobiotin assay was performed for scAvd in various temperatures.

quenching measured for whole emission spectrum (290-500 nm) due to biotin binding ([2]; 290-500 nm): 39.7%
Fluorescence quenching (350 nm) ([2]; intrinsic fluorescence, emission 350 nm, due to binding of biotin): 44.4%
Number of free biotin-binding sites per quaternary unit ([2]; protein 500±15 nM, titrated with biotin): 3.2
B1: scAvd: single-chain avidin, two dcAvd fused tail-to-head via 12 amino-acid linker GGSGSGSGSGSG (SEQ ID NO:24) (protein, listed as Gallus gallus)
chain: MVHATSPLLLLLLLSLALVAPGLSARKRTQPTFGFTVNWKFSESTTVFTGQCFIDRNGKEVLKTMWLLRSSVNDIGDDWKATRVGINIFTRLRTQKEGGSGGSARKCSLTGKWTNDLGSNMTIGAVNSRGEFTGTYITAVTATSNEIKESPLHGTQNTINKSGGSTTVFTGQCFIDRNGKEVLKTMWLLRSSVNDIGDDWKATRVGINIFTRLRTQKEGGSGGSARKCSLTGKWTNDLGSNMTIGAVNSRGEFTGTYITAVTATSNEIKESPLHGTQNTINKRTQPTFGFTVNWKFSEGGSGSGSGSGSGRTQPTFGFTVNWKFSESTTVFTGQCFIDRNGKEVLKTMWLLRSSVNDIGDDWKATRVGINIFTRLRTQKEGGSGGSARKCSLTGKWTNDLGSNMTIGAVNSRGEFTGTYITAVTATSNEIKESPLHGTQNTINKSGGSTTVFTGQCFIDRNGKEVLKTMWLLRSSVNDIGDDWKATRVGINIFTRLRTQKEGGSGGSARKCSLTGKWTNDLGSNMTIGAVNSRGEFTGTYITAVTATSNEIKESPLHGTQNTINKRTQPTFGFTVNWKFSE
Dissociation of fluorescent biotin Release 1 h ([1]; 25° C.): 8.8%
Dissociation of fluorescent biotin kdiss ([1]; 25° C.): 1.3e-05 s⁻¹
Dissociation of fluorescent biotin Release 1 h ([1]; 50° C.): 62.3%
Dissociation of fluorescent biotin kdiss ([1]; 50° C.): 0.00025 s⁻¹
activity after 32 min treatment ([3]; 80° C., 32 min): 26%
heat inactivation ([3]; 90° C.): fast denaturation
heat inactivation ([3]; 100° C.): fast inactivation
dissociation of [3H]biotin [4]: extremely slow dissociation of [3H]biotin
